According to the Human Domainome abundance scans (Beltran et al. 2025):

B1: Homeobox expressed in ES cells 1, residues 110 to 165; numbered along this chain, Q9UBX0 (parent)
chain: RPRTAFTQNQIEVLENVFRVNCYPGIDIREDLAQKLNLEEDRIQIWFQNRRAKLKR

Variants of: B1
Experiment: abundance fitness (aPCA) (normalised: wild type 0, dead -1); higher = more abundant; growth selection in yeast, the domain comes from the species named
Conditions: Homo sapiens

Abundance fitness, by site and new letter:
Q34: G -0.168 | L -0.157 | A -0.423 | N -0.216 | D -0.234 | I -0.106 | H -0.129 | T 0.046 | R 0.135 | E -0.076 | K -0.119 | S -0.197 | Y -0.347
D27: R 0.137 | Q 0.203 | A -0.259 | H -0.503 | K -0.185 | E 0.075 | P -0.128 | I -0.484 | S 0.233 | C -0.155 | L -0.271 | N 0.034 | M -0.134 | V -0.314 | W -0.526 | G -0.02
P24: K 0.273 | G -0.641 | M -0.815 | R -0.995 | D -0.606 | Y -0.366 | I -0.662 | L -0.392 | Q -0.314 | C -1.09 | W -0.896 | V -0.793 | E -0.644
R42: C -0.03 | V 0.135 | G -0.399 | I 0.055 | D -0.361 | T 0.257 | K 0.184 | L -0.156 | N 0.049 | W 0.065 | E 0.255 | Q 0.351 | Y 0.037 | H -0.05 | S 0.096 | A 0.076
I28: Q -0.171 | V 0.045 | R -0.667 | K -0.852 | S -0.505 | M -0.655 | G -0.692 | W -0.577 | A -0.089 | P -0.725 | L -0.209 | E -0.176 | Y -0.309 | C -0.534
G25: C -0.282 | P 0.187 | E -0.065 | A -0.079 | T -0.027 | K 0.11 | M -0.688 | H 0.151 | W -0.755 | S -0.106 | L -0.874 | Y -0.741 | Q -0.744 | V -1.11
L32: S -0.787 | G -0.904 | E -0.824 | R -0.886 | W -0.386 | D -0.826 | I -0.363 | Q -0.487 | T -0.495 | M -0.689 | V -0.685 | K -0.833 | A -0.832 | P -0.884 | F -0.757
R29: C -0.019 | Y -0.284 | D -0.749 | A -0.093 | L -0.222 | T 0.183 | N -0.864 | F -0.198 | K -0.691 | M 0.303 | G -0.704 | P -0.708 | S -0.709 | W -0.18 | I -0.2 | V 0.011 | Q -0.299 | E -1.23
E40: W -0.928 | S -0.162 | A 0.052 | C -0.348 | I -0.205 | V -0.244 | T -0.124 | D -0.119 | G -0.399 | Y -0.57 | N -0.614 | F -0.078 | H -0.282 | K -0.611 | R -0.167 | Q -0.047 | L -0.338
E30: Y -0.544 | W -0.002 | K 0.169 | A -0.023 | V -0.186 | H 0.234 | D -0.18 | I 0.099 | L 0.134 | G -0.131 | P -0.781 | R 0.196 | M -0.189 | C -0.063 | F 0.048 | S -0.209 | N 0.514
I45: K 0.193 | L -0.026 | D 0.052 | F 0.157 | Q 0.108 | W 0.444 | T 0.114 | N 0.166 | H -0.166 | G -0.031 | E 0.079 | C 0.196 | R 0.033 | M -0.049
